Assay results reported in publication PMC10130750, “The motor domain of the kinesin Kip2 promotes microtubule polymerization at microtubule tips” (The Journal of Cell Biology, 2023).

B8: coiled-coil domain of Bik1 (Bik1-CC, residues 182–396) (domain or fragment, S. cerevisiae, UniProt P11709 182-396, looked up)
chain: DNGHMNDLNSSEVTIELREAQLTIEKLQRKQLHYKRLLDDQRMVLEEVQPTFDRYEATIQEREKEIDHLKQQLELERRQQAKQKQFFDAENEQLLAVVSQLHEEIKENEERNLSHNQPTGANEDVELLKKQLEQLRNIEDQFELHKTKWAKEREQLKMHNDSLSKEYQNLSKELFLTKPQDSSSEEVASLTKKLEEANEKIKQLEQAQAQTAVES
notes: Bik1 coiled-coil domain, S. cerevisiae CLIP-170 ortholog, residues 182–396; Dimer by SEC-MALS (51 kD); source: recombinantly expressed and purified (E. coli BL21 (DE3), IMAC, SEC)

Key:
[1] = molecular target: T1, tubulin (free αβ-tubulin heterodimer) ( (bovine brain tubulin used …, UniProt Q6B856 1-445)); test: SEC-MALS; equimolar mixture of tubulin and Kip2-MD in its apo state; 25°C; settings: both partners purified
[2] = molecular target: T1, tubulin (free αβ-tubulin heterodimer); test: SEC-MALS; 25°C; 20 mM Hepes pH 7.4, 200 mM NaCl, 1 mM DTT; 4–8 mg/ml applied; MBP-Kip2(71-560)-mCherry or its P1^− mutant alone and mixed with tubulin; settings: both partners purified
[3] = molecular target: the molecule itself; test: as above
[4] = molecular target: the molecule itself; test: SEC-MALS; 25°C; 20 mM Tris-HCl pH 7.5, 150 mM NaCl, 1 mM DTT; 4–8 mg/ml of each protein applied, single proteins and mixtures (Bik1-CC, Kip2-NMD, Kip2-NMD-ΔT)
[5] = molecular target: tubulin (free αβ-tubulin heterodimer) (not stated (bovine brain tubulin used for pelleting, pig brain tubulin for TIRF)) (UniProt Q6B856)
[6] = molecular target: B8; test: SEC-MALS; 25°C; 20 mM Tris-HCl pH 7.5, 150 mM NaCl, 1 mM DTT; 4–8 mg/ml of each protein applied, single proteins and mixtures (Bik1-CC, Kip2-NMD, Kip2-NMD-ΔT); settings: both partners purified

Sequence of tubulin (free αβ-tubulin heterodimer) (not stated (bovine brain tubulin used for pelleting, pig brain tubulin for TIRF)) (Q6B856 whole entry, looked up, one chain of several): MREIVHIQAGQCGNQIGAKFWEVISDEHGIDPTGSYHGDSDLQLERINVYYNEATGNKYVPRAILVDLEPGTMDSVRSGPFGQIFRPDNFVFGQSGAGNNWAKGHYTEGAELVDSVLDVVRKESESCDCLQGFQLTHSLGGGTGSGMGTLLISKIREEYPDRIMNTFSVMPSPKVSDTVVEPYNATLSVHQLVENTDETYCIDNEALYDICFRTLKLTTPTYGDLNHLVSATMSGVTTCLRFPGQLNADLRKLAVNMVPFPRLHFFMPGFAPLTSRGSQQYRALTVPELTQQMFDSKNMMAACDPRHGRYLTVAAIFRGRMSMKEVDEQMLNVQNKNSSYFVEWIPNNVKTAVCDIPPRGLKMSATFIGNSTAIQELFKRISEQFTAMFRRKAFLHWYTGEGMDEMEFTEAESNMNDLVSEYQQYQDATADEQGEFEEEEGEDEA

B1: Kip2 motor domain (Kip2-MD, residues 100–503) (domain or fragment, S. cerevisiae, UniProt P28743 100-503, looked up)
chain: TGSITVTIRPKPRSVGTSRDHVGLKSPRYSQPRSNSHHGSNTFVRDPWFITNDKTIVHEEIGEFKFDHVFASHCTNLEVYERTSKPMIDKLLMGFNATIFAYGMTGSGKTFTMSGNEQELGLIPLSVSYLFTNIMEQSMNGDKKFDVIISYLEIYNERIYDLLESGLEESGSRISTPSRLYMSKSNSNGLGVELKIRDDSQYGVKVIGLTERRCESSEELLRWIAVGDKSRKIGETDYNARSSRSHAIVLIRLTSTNVKNGTSRSSTLSLCDLAGSERATGQQERRKEGSFINKSLLALGTVISKLSADKMNSVGSNIPSPSASGSSSSSGNATNNGTSPSNHIPYRDSKLTRLLQPALSGDSIVTTICTVDTRNDAAAETMNTLRFASRAKNVALHVSKKSII
notes: Kip2 motor domain, S. cerevisiae, residues 100–503; Used in its apo state; The methods tell cleavage of the His tag only for Kip2-NMD and Kip2-NMD-ΔT; also called apo Kip2-MD; source: E. coli BL21 (DE3), purified (IMAC, SEC)
- stoichiometry N [1]: 1

B2: MBP-Kip2(71-560)-mCherry (domain or fragment, S. cerevisiae, UniProt P28743 71-560, looked up)
chain: KSDPFLHPGRIRIRRSDSINNNSRKNDTYTGSITVTIRPKPRSVGTSRDHVGLKSPRYSQPRSNSHHGSNTFVRDPWFITNDKTIVHEEIGEFKFDHVFASHCTNLEVYERTSKPMIDKLLMGFNATIFAYGMTGSGKTFTMSGNEQELGLIPLSVSYLFTNIMEQSMNGDKKFDVIISYLEIYNERIYDLLESGLEESGSRISTPSRLYMSKSNSNGLGVELKIRDDSQYGVKVIGLTERRCESSEELLRWIAVGDKSRKIGETDYNARSSRSHAIVLIRLTSTNVKNGTSRSSTLSLCDLAGSERATGQQERRKEGSFINKSLLALGTVISKLSADKMNSVGSNIPSPSASGSSSSSGNATNNGTSPSNHIPYRDSKLTRLLQPALSGDSIVTTICTVDTRNDAAAETMNTLRFASRAKNVALHVSKKSIISNGNNDGDKDRTIELLRRQLEEQRRMISELKNRSNIGEPLTKSSNESTYKDIKATGN
notes: Kip2 motor domain with a first helix predicted to form part of the coiled coil, S. cerevisiae, residues 71–560; Mixed monomers and dimers by SEC-MALS (185 kD; monomer calculated 125.8 kD); also called MBP-Kip2-MD-mCherry; MBP-Kip2-MD; not shown: MBP, N-terminal, kept; mCherry, C-terminal, kept
- stoichiometry N [2]: 1 MBP-Kip2-MD-mCherry dimer per tubulin dimer
- stoichiometry N [3]: 2

B3: MBP-Kip2(71-560)-P1^−-mCherry (domain or fragment, S. cerevisiae, UniProt P28743 71-560, looked up)
chain: KSDPFLHPGRIRIRRSDSINNNSRKNDTYTGSITVTIRPKPRSVGTSRDHVGLKSPRYSQPRSNSHHGSNTFVRDPWFITNDKTIVHEEIGEFKFDHVFASHCTNLEVYERTSKPMIDKLLMGFNATIFAYGMTGSGKTFTMSGNEQELGLIPLSVSYLFTNIMEQSMNGDKKFDVIISYLEIYNERIYDLLESGLEESGSRISTPSRLYMSKSNSNGLGVELAIADDSQYGVKVIGLTERRCESSEELLRWIAVGDKSRKIGETDYNARSSRSHAIVLIRLTSTNVKNGTSRSSTLSLCDLAGSERATGQQERRKEGSFINKSLLALGTVISKLSADKMNSVGSNIPSPSASGSSSSSGNATNNGTSPSNHIPYRDSKLTRLLQPALSGDSIVTTICTVDTRNDAAAETMNTLRFASRAKNVALHVSKKSIISNGNNDGDKDRTIELLRRQLEEQRRMISELKNRSNIGEPLTKSSNESTYKDIKATGN
notes: Kip2 motor domain with a first helix of the coiled coil, S. cerevisiae, residues 71–560, patch 1 (Lys294, Arg296) substituted with alanines; Mixed monomers and dimers by SEC-MALS (192 kD); also called MBP-Kip2-MD-P1^−-mCherry; MBP-Kip2-MD-P1; not shown: MBP, N-terminal, kept; mCherry, C-terminal, kept
- stoichiometry N [3]: 2

B4: Kip2-NMD-ΔT (truncated non-motor domain of Kip2, residues 504–645) (domain or fragment, S. cerevisiae, UniProt P28743 504-645, looked up)
chain: SNGNNDGDKDRTIELLRRQLEEQRRMISELKNRSNIGEPLTKSSNESTYKDIKATGNDGDPNLALMRAENRVLKYKLENCEKLLDKDVVDLQDSEIMEIVEMLPFEVGTLLETKFQGLESQIRQYRKYTQKLEDKIMALEKS
notes: Kip2 non-motor domain lacking the C-terminal tail, S. cerevisiae, residues 504–645; Dimer by SEC-MALS (34 kD); also called Kip2-NMD-∆T; source: E. coli BL21 (DE3), purified (IMAC, SEC); not shown: His6, N-terminal, cleaved
- stoichiometry N [4]: 2

B5: MBP-Kip2(1-560)-RFP (domain or fragment)
chain: MIQKMSPSLRRPSTRSSSGSSNIPQSPSVRSTSSFSNLTRNSIRSTSNSGSQSISASSTRSNSPLRSVSAKSDPFLHPGRIRIRRSDSINNNSRKNDTYTGSITVTIRPKPRSVGTSRDHVGLKSPRYSQPRSNSHHGSNTFVRDPWFITNDKTIVHEEIGEFKFDHVFASHCTNLEVYERTSKPMIDKLLMGFNATIFAYGMTGSGKTFTMSGNEQELGLIPLSVSYLFTNIMEQSMNGDKKFDVIISYLEIYNERIYDLLESGLEESGSRISTPSRLYMSKSNSNGLGVELKIRDDSQYGVKVIGLTERRCESSEELLRWIAVGDKSRKIGETDYNARSSRSHAIVLIRLTSTNVKNGTSRSSTLSLCDLAGSERATGQQERRKEGSFINKSLLALGTVISKLSADKMNSVGSNIPSPSASGSSSSSGNATNNGTSPSNHIPYRDSKLTRLLQPALSGDSIVTTICTVDTRNDAAAETMNTLRFASRAKNVALHVSKKSIISNGNNDGDKDRTIELLRRQLEEQRRMISELKNRSNIGEPLTKSSNESTYKDIKATGN
- average speed of microtubule growth in dynamic microtubule assay (porcine tubulin), 2 nM Kip2-WT, fold increase over no addition [5]: > 13 fold
- frequency of catastrophe in dynamic microtubule assay (porcine tubulin), 2 nM Kip2-WT, fold reduction against no addition [5]: 19 fold
- length of freshly polymerized microtubules in dynamic microtubule assay (7 µM porcine tubulin, ATP), 2 nM Kip2-WT, fold over no addition [5]: 5 fold

B6: MBP-Kip2(1-560)-P1^−-RFP (domain or fragment)
chain: MIQKMSPSLRRPSTRSSSGSSNIPQSPSVRSTSSFSNLTRNSIRSTSNSGSQSISASSTRSNSPLRSVSAKSDPFLHPGRIRIRRSDSINNNSRKNDTYTGSITVTIRPKPRSVGTSRDHVGLKSPRYSQPRSNSHHGSNTFVRDPWFITNDKTIVHEEIGEFKFDHVFASHCTNLEVYERTSKPMIDKLLMGFNATIFAYGMTGSGKTFTMSGNEQELGLIPLSVSYLFTNIMEQSMNGDKKFDVIISYLEIYNERIYDLLESGLEESGSRISTPSRLYMSKSNSNGLGVELAIADDSQYGVKVIGLTERRCESSEELLRWIAVGDKSRKIGETDYNARSSRSHAIVLIRLTSTNVKNGTSRSSTLSLCDLAGSERATGQQERRKEGSFINKSLLALGTVISKLSADKMNSVGSNIPSPSASGSSSSSGNATNNGTSPSNHIPYRDSKLTRLLQPALSGDSIVTTICTVDTRNDAAAETMNTLRFASRAKNVALHVSKKSIISNGNNDGDKDRTIELLRRQLEEQRRMISELKNRSNIGEPLTKSSNESTYKDIKATGN
- average growth speed of microtubules in dynamic microtubule assay (porcine tubulin), 2, 4 and 8 nM Kip2-P1^− (no speed-up at 2 nM), fold over no addition [5]: 2.9 fold
- effect on catastrophe frequency in dynamic microtubule assay (porcine tubulin), 2 nM Kip2-P1^−, against the wild-type protein [5]: 10 fold

B7: Kip2 non-motor domain (Kip2-NMD, residues 504–706) (domain or fragment, S. cerevisiae, UniProt P28743 504-706, looked up)
chain: SNGNNDGDKDRTIELLRRQLEEQRRMISELKNRSNIGEPLTKSSNESTYKDIKATGNDGDPNLALMRAENRVLKYKLENCEKLLDKDVVDLQDSEIMEIVEMLPFEVGTLLETKFQGLESQIRQYRKYTQKLEDKIMALEKSGHTAMSLTGCDGTEVIELQKMLERKDKMIEALQSAKRLRDRALKPLINTQQSPHPVVDNDK
notes: Kip2 non-motor domain (coiled coil and C-terminal tail), S. cerevisiae, residues 504–706; Dimer by SEC-MALS (45 kD); PreScission site between His tag and protein; also called NMD-Kip2; source: E. coli BL21 (DE3), purified (IMAC, SEC); not shown: His6, N-terminal, cleaved
- stoichiometry N [4]: 2
- stoichiometry N [6]: 1 Kip2-NMD dimer per Bik1-CC dimer

Binder: B8
- stoichiometry N [4]: 2
